These results are taken from paper PMC4264339 (Virology Journal, 2014).

The target in test [1] is HA protein on FJ13 virus (A/duck/Fujian/13/2002, H5N1), virus particles (Influenza A virus A/duck/Fujian/13/2002 …, UniProt Q9Q0U6, strain). Briefly: ELISA. As to conditions: one partner purified.
In test [2] the target is HA protein of FJ13 virus in infected MDCK cells (Influenza A virus A/duck/Fujian/13/2002 …, UniProt Q9Q0U6, strain). The test can be described thus: immunostaining of cells or tissue. As to conditions: partners not purified.

B1: scFv3 secreted from DF-1 cells, c-Myc tagged (scFv, V domains shown)
VH: AVTLDESGGGLQTPGGALSLVCKASGFTFSSYDMYWVRQAPGKGLEFVAIINSGGSTSYYASAVKGRATISRDNGQSTVRLQLNNLRADDTGTYYCAKGPSAIDAWGHGTEVIVSS
VL: ALTQPSSVSANPGETVKITCSGGSSTYGYSWHQQKSPGSAPVTVVYSNDERPSDIPSRFSGSKSGSTGTLTITGVQADDEAIYYCGTYGSTDSGYVGIFGARTTLTVL
In the case of B1, the binding result in test [1] and in test [2] was “binds” in each case.
